Earlier results in paper PMC3749792.

What was measured:
Experiment in all cases: NMR
Settings in all cases: RNase T1, presumably free unmodified enzyme (not stated explicitly)
His27 = His27 (UniProt position 53, AGYQLHEDGET)
His40 = His40 (UniProt position 66, SNSYPHKYNNY)
His92 = His92 (UniProt position 118, AGVITHTGASG)

Substance: Ribonuclease T1 (RNase T1) (Aspergillus oryzae)
- pKa (His27): 7.26
- pKa (His40): 7.92
- pKa (His92): 7.80
